Experiments:
[1] = system: Bifidobacterium breve M-16V; assay: Growth promoting effect on Bifidobacterium breve M-16V (turbidity at 600 nm after anaerobic culture); format: cell-based; conditions: 2′-FL 0.000 mass %, glucose-free MRS, 37° C., 24 hours, n = 4
Protocol: (§1) DifcoMRS (BD) was dissolved in purified water as described in a package insert and sterilized at 115° C. for 15 minutes. L-Cysteine hydrochloride (Wako) was dissolved in purified water, filtered and sterilized, and was aseptically added to MRS medium cooled to room temperature after sterilization to have a final concentration of 0.05% by mass.
as §1, with “A reagent” for “DifcoMRS (BD)”, “with the composition shown” for “as described”, “Table 1” for “a package insert”
Human milk oligosaccharide (2′-fucosyllactose (2′-FL) (Carbosynth)) and lactoferrin (produced by Morinaga Milk Industry Co., Ltd., iron content 15.8 mg/100 g) were dissolved in purified water, respectively. They were filtered and sterilized after dissolution.
(§2) 150 μL of a pre-culture solution of Bifidobacterium breve M-16V was added to 3 mL of MRS medium prepared in (1) (i), and was anaerobically cultured at 37° C. for 16 hours. After culturing, the cells were separated from the culture solution by centrifuging at 1500×g for 5 minutes. The culture solution was removed, and the cells were resuspended in 3 mL of glucose-free MRS medium prepared in (1) (ii).
(§3) The pre-culture solution prepared in (2) was added to the glucose-free MRS medium prepared in (1) (ii) to have a final concentration of 1 v/v %. Further, the 2′-fucosyllactose (2′-FL) solution and the lactoferrin solution prepared in (1) (iii) were respectively added to have the final concentrations shown in Table 2, and were dispensed into a 96-well plate at 200 μL/well.
(§4) Then, the cells were anaerobically cultured at 37° C. for 24 hours. After culturing, turbidity was measured at a wavelength of 600 nm using a microplate reader (Corona Electric) to evaluate the growth of bifidobacteria.

[2] = system: Bifidobacterium infantis M-63; assay: Growth promoting effect on Bifidobacterium infantis M-63 (turbidity at 600 nm); format: cell-based; conditions: 2′-FL 0.000 mass %, 37° C., 24 hours, n = 12
Protocol: as §2, §3, §4
The same operation as in Example 1 was carried out except that the bifidobacteria were replaced with Bifidobacterium infantis M-63, and the growth was evaluated.

B1: lactoferrin (protein, UniProt P24627 20-708, looked up)
Lactotransferrin: APRKNVRWCTISQPEWFKCRRWQWRMKKLGAPSITCVRRAFALECIRAIAEKKADAVTLDGGMVFEAGRDPYKLRPVAAEIYGTKESPQTHYYAVAVVKKGSNFQLDQLQGRKSCHTGLGRSAGWIIPMGILRPYLSWTESLEPLQGAVAKFFSASCVPCIDRQAYPNLCQLCKGEGENQCACSSREPYFGYSGAFKCLQDGAGDVAFVKETTVFENLPEKADRDQYELLCLNNSRAPVDAFKECHLAQVPSHAVVARSVDGKEDLIWKLLSKAQEKFGKNKSRSFQLFGSPPGQRDLLFKDSALGFLRIPSKVDSALYLGSRYLTTLKNLRETAEEVKARYTRVVWCAVGPEEQKKCQQWSQQSGQNVTCATASTTDDCIVLVLKGEADALNLDGGYIYTAGKCGLVPVLAENRKSSKHSSLDCVLRPTEGYLAVAVVKKANEGLTWNSLKDKKSCHTAVDRTAGWNIPMGLIVNQTGSCAFDEFFSQSCAPGADPKSRLCALCAGDDQGLDKCVPNSKEKYYGYTGAFRCLAEDVGDVAFVKNDTVWENTNGESTADWAKNLNREDFRLLCLDGTRKPVTEAQSCHLAVAPNHAVVSRSDRAAHVKQVLLHQQALFGKNGKNCPDKFCLFKSETKNLLFNDNTECLAKLGGRPTYEEYLGTEYVTAIANLKKCSTSPLLEACAFLTR
notes: lactoferrin produced by Morinaga Milk Industry Co., Ltd., iron content 15.8 mg/100 g
B1 gave an OD600 ([1]; lactoferrin 0.031 mg/mL) of 0.072, an OD600 ([1]; lactoferrin 0.063 mg/mL) of 0.074 and an OD600 ([1]; lactoferrin 0.125 mg/mL) of 0.073. The OD600 ([1]; lactoferrin 0.250 mg/mL) was 0.074, the OD600 ([1]; lactoferrin 0.500 mg/mL) was 0.075 and the OD600 ([1]; lactoferrin 1.000 mg/mL) was 0.078. The OD600 ([2]; lactoferrin 0.500 mg/mL) was 0.093 and the OD600 ([2]; lactoferrin 1.000 mg/mL) was 0.101.
